The series concerns the molecule itself. The series can be described thus: gel permeation chromatography on calibrated Superdex G-75 (about 60,000 against the predicted monomer of 32.1 kDa) with SDS-PAGE; self-association (homodimer).

Description: After centrifugation as above, the cell pellet was resuspended in 80 ml of ice cold 50 mM Tris (pH 7.6) containing 10% (v/v) glycerol, 10 mM MgCl_2, 5 mM DTT, and 1 μg/ml leupeptin (extraction/assay buffer). All subsequent operations were conducted at 0–4° C. Cells were disrupted with 150 ml glass beads using a Biospec Bead-Beater operated at 90 V for 5 min, and the resulting debris was removed by centrifugation at 3000 g for 20 min to yield a supernatant that was further clarified by centrifugation at 31,000 g for 20 min. The resulting supernatant was used as the enzyme source.

B1: T. canadensis GGPP synthase Tr^295 truncated protein (enzyme)
chain: FDFNEYMKSKAVAVDAALDKAIPLEYPEKIHESMRYSLLAGGKRVRPALCIAACELVGGSQDLAMPTACAMEMIHTMSLIHDDLPCMDNDDFRRGKPTNHKVFGEDTAVLAGDALLSFAFEHIAVATSKTVPSDRTLRVISELGKTIGSQGLVGGQVVDITSEGDANVDLKTLEWIHIHKTAVLLECSVVSGGILGGATEDEIARIRRYARCVGLLFQVVDDILDVTKSSEELGKTAGKDLLTDKATYPKLMGLEKAKEFAAELATRAKEELSSFDQIKAAPLLGLADYIAFRQN
As for B1, the binding result is listed as “binds”.
